Measurements from IntAct's records for PubMed 24525235.

B1: Twist-related protein 1 (Homo sapiens), Q15672 (parent)
chain: MMQDVSSSPVSPADDSLSNSEEEPDRQQPPSGKRGGRKRRSSRRSAGGGAGPGGAAGGGVGGGDEPGSPAQGKRGKKSAGCGGGGGAGGGGGSSSGGGSPQSYEELQTQRVMANVRERQRTQSLNEAFAALRKIIPTLPSDKLSKIQTLKLAARYIDFLYQVLQSDELDSKMASCSYVAHERLSYAFSVWRMEGAWSMSASH

Variants of: B1
Details: with BRD4, O60885-1

| Variant | effect of a mutation on the interaction |
| --- | --- |
| MMQDVSSSPVSPADDSLSNSEEEPDRQQPPSGKRGGRKRRSSRRSAGGGAGPGGAAGGGVGGGDEPGSPAQGRRGRKSAGCGGGGGAGGGGGSSSGGGSPQSYEELQTQRVMANVRERQRTQSLNEAFAALRKIIPTLPSDKLSKIQTLKLAARYIDFLYQVLQSDELDSKMASCSYVAHERLSYAFSVWRMEGAWSMSASH [K73R;K76R] | disrupting interaction strength |
| MMQDVSSSPVSPADDSLSNSEEEPDRQQPPSGKRGGRKRRSSRRSAGGGAGPGGAAGGGVGGGDEPGSPAQGKRGRKSAGCGGGGGAGGGGGSSSGGGSPQSYEELQTQRVMANVRERQRTQSLNEAFAALRKIIPTLPSDKLSKIQTLKLAARYIDFLYQVLQSDELDSKMASCSYVAHERLSYAFSVWRMEGAWSMSASH [K76R] | decreasing interaction strength |
| MMQDVSSSPVSPADDSLSNSEEEPDRQQPPSGKRGGRKRRSSRRSAGGGAGPGGAAGGGVGGGDEPGSPAQGRRGKKSAGCGGGGGAGGGGGSSSGGGSPQSYEELQTQRVMANVRERQRTQSLNEAFAALRKIIPTLPSDKLSKIQTLKLAARYIDFLYQVLQSDELDSKMASCSYVAHERLSYAFSVWRMEGAWSMSASH [K73R] | decreasing interaction strength |
